Experimental data published in publication PMC3401516.

Legend:
ERK2 (Rattus norvegicus) = ERK2 (Rattus norvegicus) (UniProt P63086); conditions: cited from earlier work
[1] = molecular target: activated His6-tagged ERK2 (cleavable His6-tag construct, tag not cleaved) (Rattus norvegicus) (UniProt P63086); experiment: SEC-MALS

Row | Substance | Kd (ERK2 (Rattus norvegicus)) [nM] | percent dimer [1] [%] | stoichiometry N [1]
1 | ERK2 (from UniProt P63086) | 7 |  | 
2 | activated His6-tagged ERK2 (cleavable His6-tag construct, tag not cleaved) (from UniProt P63086 1-358) (enzyme) |  | 30 | 2
